From patent publication US20230303658A1 (published 2023)

Legend:
[1] = molecular target: T1, CD16V protein (extracellular portion of CD16A V158 with C-terminal FLAG sequence) (human, UniProt P08637 19-208); assay: ELISA: EpCAM coated, anti-EpCAM antibody captured, FLAG-tagged CD16V protein titrated, anti-FLAG-HRP detection
T1 construct: Soluble protein from ExpiCHO-S cells, purified on anti-FLAG gel
Experimental: (§1) After incubation at room temperature for one hour, the plate was washed with TBS-T. Next, 20 μL of horseradish peroxidase-labeled anti-FLAG (registered trademark) M2 antibody diluted with the diluent was added to each well as a detection antibody. After incubating at room temperature for one hour, the plate was washed with TBS-T. After adding TMB+Substrate-Chromogen and incubating, the reaction was stopped by adding 1M sulfuric acid, and the absorbance at 450 nm and reference wavelength were measured using Infinite 200 PRO.

CD16V_K128E_K131D [2] = molecular target: T2, CD16V_K128E_K131D (human, UniProt P08637 19-208); assay: ELISA: EpCAM coated, anti-EpCAM antibody captured, FLAG-tagged CD16V protein titrated from 10 µg/mL, anti-FLAG-HRP detection
T2 construct: Soluble FLAG-tagged mutant
T2 sequence (P08637 other isoform, or with tags, fused parts or gaps K128E K131D K128E K131D): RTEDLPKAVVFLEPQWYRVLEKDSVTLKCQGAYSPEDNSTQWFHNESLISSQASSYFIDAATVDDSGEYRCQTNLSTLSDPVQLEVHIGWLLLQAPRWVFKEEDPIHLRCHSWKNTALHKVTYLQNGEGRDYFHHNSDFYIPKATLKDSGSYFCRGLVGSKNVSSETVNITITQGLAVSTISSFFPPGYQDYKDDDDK
Experimental: as §1

CD16V_K131D_N38Q [3] = molecular target: T3, CD16V_K131D_N38Q (human, UniProt P08637 19-208); assay: as above
T3 construct: Soluble FLAG-tagged mutant
T3 sequence (P08637 other isoform, or with tags, fused parts or gaps K131D N38Q K131D N38Q): as the sequence (P08637 other isoform, or with tags, fused parts or gaps K128E K131D K128E K131D) above, with N38Q, E128K counted along it
Experimental: as §1

CD16V_K131D [4] = molecular target: T4, CD16V_K131D (human, UniProt P08637 19-208); assay: as above
T4 construct: Soluble FLAG-tagged mutant; also called K149D (AAH17865.1 numbering)
T4 sequence (P08637 other isoform, or with tags, fused parts or gaps K131D K131D): as the sequence (P08637 other isoform, or with tags, fused parts or gaps K128E K131D K128E K131D) above, with E128K counted along it
Experimental: as §1

CD16V_K128E_K131E [5] = molecular target: T5, CD16V_K128E_K131E (human, UniProt P08637 19-208); assay: as above
T5 construct: Soluble FLAG-tagged mutant
T5 sequence (P08637 other isoform, or with tags, fused parts or gaps K128E K131E K128E K131E): as the sequence (P08637 other isoform, or with tags, fused parts or gaps K128E K131D K128E K131D) above, with D131E counted along it
Experimental: as §1

CD16V_K131D_N74Q [6] = molecular target: T6, CD16V_K131D_N74Q (human, UniProt P08637 19-208); assay: as above
T6 construct: Soluble FLAG-tagged mutant
T6 sequence (P08637 other isoform, or with tags, fused parts or gaps K131D N74Q K131D N74Q): as the sequence (P08637 other isoform, or with tags, fused parts or gaps K128E K131D K128E K131D) above, with N74Q, E128K counted along it
Experimental: as §1

CD16V_K128E_K131D [7] = molecular target: T2, CD16V_K128E_K131D; assay: ELISA: EpCAM coated, anti-EpCAM antibody captured, FLAG-tagged CD16V protein titrated, anti-FLAG-HRP detection
Experimental: as §1

CD16V_K131D_N38Q [8] = molecular target: T3, CD16V_K131D_N38Q; assay: as above
Experimental: as §1

CD16V_K131D [9] = molecular target: T4, CD16V_K131D; assay: as above
Experimental: as §1

CD16V_K128E_K131E [10] = molecular target: T5, CD16V_K128E_K131E; assay: as above
Experimental: as §1

CD16V_K131D_N74Q [11] = molecular target: T6, CD16V_K131D_N74Q; assay: as above
Experimental: as §1

[12] = molecular target: T1, CD16V protein (extracellular portion of …); assay: ELISA: EpCAM coated, anti-EpCAM antibody captured, FLAG-tagged CD16V protein titrated from 10 µg/mL, anti-FLAG-HRP detection
Experimental: as §1

T1 sequence (P08637 other isoform, or with tags, fused parts or gaps): as the sequence (P08637 other isoform, or with tags, fused parts or gaps K128E K131D K128E K131D) above, with E128K, D131K counted along it

| Binder | binding result [1] | binding result (CD16V_K128E_K131D [2]) | binding result (CD16V_K131D_N38Q [3]) | binding result (CD16V_K131D [4]) | binding result (CD16V_K128E_K131E [5]) | binding result (CD16V_K131D_N74Q [6]) | binding result (CD16V_K128E_K131D [7]) | binding result (CD16V_K131D_N38Q [8]) | binding result (CD16V_K131D [9]) | binding result (CD16V_K128E_K131E [10]) | binding result (CD16V_K131D_N74Q [11]) | binding result [12] |
| --- | --- | --- | --- | --- | --- | --- | --- | --- | --- | --- | --- | --- |
| Fc_RK type anti-EpCAM antibody (antibody, human IgG1, kappa) heavy: not shown light: NIVMTQSPKSMSMSVGERVTLTCKASENVVTYVSWYQQKPEQSPKLLIYGASNRYTGVPDRFTGSGSATDFTLTISSVQAEDLADYHCGQGYSYPYTFGGGTKLEIKRTVAAPSVFIFPPSDEQLKSGTASVVCLLNNFYPREAKVQWKVDNALQSGNSQESVTEQDSKDSTYSLSSTLTLSKADYEKHKVYACEVTHQGLSSPVTKSFNRGEC | no binding (tested: CD16V protein up to 10 µg/mL) | binds | binds | binds | binds | binds |  |  |  |  |  |  |
| Fc_wt type anti-EpCAM antibody (antibody, human IgG1, kappa, also called edrecolomab variable regions on human Igγ1) heavy: not shown light: NIVMTQSPKSMSMSVGERVTLTCKASENVVTYVSWYQQKPEQSPKLLIYGASNRYTGVPDRFTGSGSATDFTLTISSVQAEDLADYHCGQGYSYPYTFGGGTKLEIKRTVAAPSVFIFPPSDEQLKSGTASVVCLLNNFYPREAKVQWKVDNALQSGNSQESVTEQDSKDSTYSLSSTLTLSKADYEKHKVYACEVTHQGLSSPVTKSFNRGEC |  |  |  |  |  |  | no binding (tested: CD16V protein up to 10 µg/mL) | no binding (tested: CD16V protein up to 10 µg/mL) | no binding (tested: CD16V protein up to 10 µg/mL) | no binding (tested: CD16V protein up to 10 µg/mL) | no binding (tested: CD16V protein up to 10 µg/mL) | binds |
| Fc_RR type anti-EpCAM antibody (antibody, human IgG1, kappa) heavy: not shown light: NIVMTQSPKSMSMSVGERVTLTCKASENVVTYVSWYQQKPEQSPKLLIYGASNRYTGVPDRFTGSGSATDFTLTISSVQAEDLADYHCGQGYSYPYTFGGGTKLEIKRTVAAPSVFIFPPSDEQLKSGTASVVCLLNNFYPREAKVQWKVDNALQSGNSQESVTEQDSKDSTYSLSSTLTLSKADYEKHKVYACEVTHQGLSSPVTKSFNRGEC | no binding (tested: CD16V protein up to 10 µg/mL) | binds | binds | binds | binds | binds |  |  |  |  |  |  |
